Target: GLI3 (His-tagged; probably zinc-finger fragment) (UniProt P10071 480-632)
Experiment: EMSA; dose-dependent shift; 5 mM MgCl2; EMSA: 20 mM Tris-HCl pH 7.5, 50 mM NaCl, 5 mM MgCl2, 0.2 mM EDTA, 1 mM DTT, 1 h at room temperature; 6% native PAGE
Conditions: protein: recombinant; tags: His; label: biotin; blunt

Sequence of GLI3 (His-tagged; probably zinc-finger fragment) (P10071 480-632): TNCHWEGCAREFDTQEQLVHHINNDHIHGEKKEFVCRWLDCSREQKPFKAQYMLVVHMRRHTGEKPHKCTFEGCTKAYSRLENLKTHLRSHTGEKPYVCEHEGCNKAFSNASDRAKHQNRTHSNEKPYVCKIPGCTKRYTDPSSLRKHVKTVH

B1: rs72856331-G (dsDNA)
DNA 1: CCCCAAGCAGGGGGTGGCCCCTGAG
DNA 2: CTCAGGGGCCACCCCCTGCTTGGGG
B1: binds.

— paper PMC11996917, “An inherited predisposition allele promotes gastric cancer via enhancing deubiquitination-mediated activation of epithelial-to-mesenchymal transition signaling”
